Data set [1] has as its target T1, TDRD5 LOTUS domain 3 (L3) (Mus musculus, UniProt Q5VCS6 291-365).
T1 sequence: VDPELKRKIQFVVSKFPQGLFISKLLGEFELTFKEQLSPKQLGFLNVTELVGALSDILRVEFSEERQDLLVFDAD
The data set can be described thus: ELISA. (In general: An ELISA detects its analyte on a solid surface through an enzyme-linked reagent.)

The target of data set [2] is T2, TDRD5 LOTUS domain 1 (L1) (Mus musculus, UniProt Q5VCS6 7-80).
T2 sequence: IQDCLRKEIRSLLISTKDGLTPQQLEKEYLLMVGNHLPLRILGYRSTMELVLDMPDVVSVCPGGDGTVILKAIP
The data set can be described thus: pull-down, ELISA.

Data set [3] concerns the target T3, TDRD5 LOTUS domain 2 (L2) (Mus musculus, UniProt Q5VCS6 122-197).
T3 sequence: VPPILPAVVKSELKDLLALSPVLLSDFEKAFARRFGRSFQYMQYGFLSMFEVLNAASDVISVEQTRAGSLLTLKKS
The data set can be described thus: pull-down, ELISA.

The target in data set [4] is T1, TDRD5 LOTUS domain 3 (L3). The data set can be described thus: pull-down, ELISA.
Another data set concerns the target T4, AT3G52980-LOTUS (plant, UniProt Q9LF94 199-282).
T4 sequence: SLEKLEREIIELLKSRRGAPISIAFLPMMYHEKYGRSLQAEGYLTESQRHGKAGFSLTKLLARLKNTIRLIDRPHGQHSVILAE
Description: ELISA.

The target in another data set is T5, human MARF1 L7 (Homo sapiens, UniProt Q9Y4F3 1411-1485).
T5 sequence: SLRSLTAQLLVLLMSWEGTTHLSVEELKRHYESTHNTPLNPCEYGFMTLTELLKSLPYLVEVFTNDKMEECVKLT
The data set can be described thus: ELISA.

A further data set concerns the target T6, Oskar LOTUS (eLOTUS) (Drosophila, UniProt P25158 139-241).
T6 sequence: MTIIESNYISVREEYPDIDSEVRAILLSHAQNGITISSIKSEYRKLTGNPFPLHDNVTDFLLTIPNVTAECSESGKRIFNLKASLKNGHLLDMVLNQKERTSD
Description: ELISA.

Another data set has as its target T7, TDRD7 L2 (Mus musculus, UniProt Q8K1H1 222-291).
T7 sequence: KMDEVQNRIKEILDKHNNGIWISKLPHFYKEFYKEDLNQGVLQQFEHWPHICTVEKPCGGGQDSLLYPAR
The data set can be described thus: ELISA.

The next data set concerns the target T8, human TDRD5 L1 (Homo sapiens, UniProt Q8NAT2 7-80).
T8 sequence: T2 sequence with D3E, T21S, Q24E, S59R, G64A, D65G
Description: ELISA.

The target in another data set is human TDRD7 L1 (Homo sapiens, UniProt Q8NHU6 3-76). The data set can be described thus: ELISA.
For another data set, the target named is T9, Tejas LOTUS (Drosophila, UniProt A1Z9P1 6-79).
T9 sequence: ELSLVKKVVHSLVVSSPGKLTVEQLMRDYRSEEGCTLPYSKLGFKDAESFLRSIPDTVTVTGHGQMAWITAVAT
The data set can be described thus: ELISA.

The target of another data set is T10, TDRD7 L3 (Mus musculus, UniProt Q8K1H1 325-394).
T10 sequence: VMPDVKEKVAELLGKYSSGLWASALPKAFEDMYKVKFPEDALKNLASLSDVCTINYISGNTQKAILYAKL
Description: ELISA.

The target in the next data set is T11, TDRD7 L1 (Mus musculus, UniProt Q8K1H1 3-76).
T11 sequence: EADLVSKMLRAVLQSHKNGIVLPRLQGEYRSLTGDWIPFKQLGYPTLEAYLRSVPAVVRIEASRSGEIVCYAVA
Description: ELISA.

Another data set has as its target T12, TP0894-LOTUS (Treponema pallidum subsp. pallidum str. …, UniProt O83864 178-253).
T12 sequence: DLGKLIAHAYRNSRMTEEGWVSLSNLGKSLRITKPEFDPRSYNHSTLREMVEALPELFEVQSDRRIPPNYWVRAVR
Description: ELISA.

The target in the next data set is T13, human MARF1 L1 (Homo sapiens, UniProt Q9Y4F3 875-949).
T13 sequence: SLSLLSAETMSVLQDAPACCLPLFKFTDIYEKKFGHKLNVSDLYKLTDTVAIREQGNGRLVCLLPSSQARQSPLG
The data set can be described thus: ELISA.

In data set [5] the target is T2, TDRD5 LOTUS domain 1 (L1). The data set can be described thus: DRaCALA.
Data set [6] has as its target T2, TDRD5 LOTUS domain 1 (L1). Description: ELISA.

Numbering of substitutions follows the chain as printed.

The text below walks through data of paper PMC7498356.

Sequence of human TDRD7 L1 (Q8NHU6 3-76): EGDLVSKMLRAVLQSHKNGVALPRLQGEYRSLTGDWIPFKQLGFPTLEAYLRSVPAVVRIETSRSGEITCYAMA

As to GGGGGGGGGGGGGGGGGGG (ssRNA) [Poly(G)], in data set [1], the binding result was “no binding”.
Consider AAAAAAAAAAAAAAAAAAA (ssRNA) [Poly(A)], for which the binding result in [2], in data set [3] and in data set [4] was “no binding” in each case.
On to UUUUUUUUUUUUUUUUUUU (ssRNA) [Poly(U)], for which the binding result in data set [2], in [3] and in data set [4] was “no binding” throughout.
Regarding GGUGGGCAGGGGAGUGGGGGUGGG (structured_RNA) [Cluster G4-1 RNA], the binding result with AT3G52980-LOTUS, with human MARF1 L7, in the data set with Oskar LOTUS (eLOTUS), with TDRD7 L2, in the data set with human TDRD5 L1 and with human TDRD7 L1 was “binds” in each case. The binding result with Tejas LOTUS is “binds”; with TDRD7 L3, “binds”; with TDRD7 L1, “binds”; with TP0894-LOTUS it was “binds”; with human MARF1 L1 it was “binds”; in data set [4], “no binding”. Also, in data set [5], the binding result is given as “binds”.
For CCCCCCCCCCCCCCCCCCC (ssRNA) [Poly(C)], the binding result in [2], in data set [3] and in [4] was “no binding” in each case.
For the molecule TTAGGGTTAGGGTTAGGGTTAGGG (structured_DNA) [TERRA G4 DNA], the binding result in data set [6] is recorded as “no binding”.
